Test results as given in the supplement of paper PMC10567573.

Assay: protein stability index of a GFP-peptide fusion (GPS, HEK-293T) (PSI 1-6); higher = more stable
Settings: c terminus: native
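Note: lentivirally expressed fusion library, cells FACS-sorted into six equal-sized GFP/DsRed ratio bins, PSI computed from sequencing read fractions per bin weighted by bin number.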

## CQPISFSGFGAEDDDLGGLGLGPM [POLD2 addM]
parent: NP_006221.1
  protein stability index: 2.38

## EQRNSRWNTVLRAVKAKTHHLEPM [TRPA1 addM]
parent: NP_015628.1
  protein stability index: 4.79

## LPALFTDLYSQEITAEEAREALPM [SNF8 addM]
parent: NP_009172.2
  protein stability index: 3.04

## CQPISFSGFGAEDDDLGGLGLGPD [POLD2 addD]
parent: NP_006221.1
  protein stability index: 2.2

## HSLRAVSTDPPHHDHHDEFCLMPD [BEX2 addD]
parent: NP_116010.1
  protein stability index: 4.42

## EQRNSRWNTVLRAVKAKTHHLEPD [TRPA1 addD]
parent: NP_015628.1
  protein stability index: 3.91

## HSLRAVSTDPPHHDHHDEFCLMPM [BEX2 addM]
parent: NP_116010.1
  protein stability index: 3.52

## DGWIRVSSDNVADLHEKYSGSTPM [PSMB5 addM]
parent: NP_002788.1
  protein stability index: 2.89

## DGWIRVSSDNVADLHEKYSGSTPD [PSMB5 addD]
parent: NP_002788.1
  protein stability index: 4.37

## LPALFTDLYSQEITAEEAREALPD [SNF8 addD]
parent: NP_009172.2
  protein stability index: 5.09
